Assay results taken from PMC7010293.
Where “and” joins values, the source holds several entries; their conditions need not be identical. Identical values can stand only once.

Tests used:
Assay in all cases: SDS-PAGE under unheated, non-reducing conditions with Western blot
[1] = target: recombinant non-structural protein 1 (rNS1) of Dengue virus serotype 1, 6xHis-tagged (Dengue virus 1, Hawaii A strain)
[2] = target: recombinant non-structural protein 1 (rNS1) of Dengue virus serotype 2, 6xHis-tagged (Dengue virus 2, New Guinea C strain)
[3] = target: recombinant non-structural protein 1 (rNS1) of Dengue virus serotype 3, 6xHis-tagged (Dengue virus 3, Sri Lanka strain)
[4] = target: recombinant non-structural protein 1 (rNS1) of Dengue virus serotype 4, 6xHis-tagged (Dengue virus 4, TC25 strain)
[5] = target: recombinant non-structural protein 1 (rNS1) of Tick-borne encephalitis virus, 6xHis-tagged (Tick-borne encephalitis virus, Neudoerfl strain)
[6] = target: recombinant non-structural protein 1 (rNS1) of West Nile virus, RQ10NK, 6xHis-tagged (West Nile virus, NY99 strain)
[7] = target: recombinant non-structural protein 1 (rNS1) of Zika virus, 6xHis-tagged (Zika virus, SPH2015 strain)

Substance “recombinant non-structural protein 1 (rNS1) of Dengue virus serotype 1, 6xHis-tagged (natural protein)” has a stoichiometry N [1] of 2.
“recombinant non-structural protein 1 (rNS1) of Dengue virus serotype 2, 6xHis-tagged (natural protein)” was tested, and the stoichiometry N [2] was 2.
In the case of “recombinant non-structural protein 1 (rNS1) of Dengue virus serotype 3, 6xHis-tagged (natural protein)”, the stoichiometry N [3] is reported as 2.
“recombinant non-structural protein 1 (rNS1) of Dengue virus serotype 4, 6xHis-tagged (natural protein)” gave a stoichiometry N [4] of 2.
For “recombinant non-structural protein 1 (rNS1) of Tick-borne encephalitis virus, 6xHis-tagged (natural protein)”, the stoichiometry N [5] was 2 and 6.
With “recombinant non-structural protein 1 (rNS1) of West Nile virus, RQ10NK, 6xHis-tagged (natural protein)” the stoichiometry N [6] was 2.
With “recombinant non-structural protein 1 (rNS1) of Zika virus, 6xHis-tagged (natural protein)” the stoichiometry N [7] was 2.
